Experiments:
[1] = target: T1, YadA of Y. enterocolitica serotype O:3 (strain 6471/76), on the bacterial surface (Y. enterocolitica serotype O:3 (strain …, UniProt P31489 26-455)); assay: radioligand binding; 125I-C4bp with 3x10^8 bacteria in 1/3 GVBS with NaCl from 50 to 650 mM; binding as percent of that at 50 mM NaCl; settings: one partner purified
T1 construct: adhesin YadA, Y. enterocolitica 6471/76 serotype O:3, GenBank protein CAA32086; trimeric outer membrane protein; also called YadA (wild type, YeO3); source: endogenous (virulence plasmid pYV), on Y. enterocolitica O:3 strain 6471/76 (YeO3), grown in RPMI 1640 at 37°C
T1 sequence: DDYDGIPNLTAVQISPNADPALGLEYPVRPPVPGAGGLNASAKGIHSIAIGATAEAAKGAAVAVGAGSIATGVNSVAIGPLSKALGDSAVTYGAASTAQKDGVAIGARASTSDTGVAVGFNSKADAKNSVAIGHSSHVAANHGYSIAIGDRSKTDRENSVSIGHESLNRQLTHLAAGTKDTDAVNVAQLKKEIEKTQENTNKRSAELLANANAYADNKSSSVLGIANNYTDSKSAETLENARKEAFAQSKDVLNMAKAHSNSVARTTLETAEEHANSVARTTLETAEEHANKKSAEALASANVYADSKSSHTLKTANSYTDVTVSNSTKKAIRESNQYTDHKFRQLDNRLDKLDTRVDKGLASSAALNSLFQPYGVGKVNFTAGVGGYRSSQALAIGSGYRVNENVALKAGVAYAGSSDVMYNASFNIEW

[2] = target: T2, Ail of Y. enterocolitica serotype O:3, expressed in trans from pTM100-ail on strain YeO3-c-Ail-OCR (Y. enterocolitica serotype O:3, UniProt Q70AM3 24-178); assay: radioligand binding; 125I-C4bp (or 125I-BSA) with 3x10^8 bacteria in hypotonic 1/3 GVBS (50 mM NaCl), 30 min at 37°C; bacteria pelleted through 20% sucrose; bound as percent of total radioactivity; settings: one partner purified
T2 construct: Ail, Y. enterocolitica serotype O:3, ail gene cloned as 1711 bp PCR fragment into pTM100; GenBank protein CAE53849; Same protein as m5, from a plasmid; also called Ail (complemented); YeO3-c-Ail-OCR/pTM100-ail; source: pTM100-ail (cloned ail gene) in Y. enterocolitica YeO3-c-Ail-OCR (YadA-, Ail-, O-ag-, OC-), on the bacteria; overexpressed
T2 sequence: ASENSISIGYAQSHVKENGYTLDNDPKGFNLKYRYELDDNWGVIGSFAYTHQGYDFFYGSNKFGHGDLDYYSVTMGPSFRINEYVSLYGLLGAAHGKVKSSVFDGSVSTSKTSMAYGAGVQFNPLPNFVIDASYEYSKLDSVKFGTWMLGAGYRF

B1: C4b-binding protein (C4bp) with protein S (complex)
chain 1: NCGPPPTLSFAAPMDITLTETRFKTGTTLKYTCLPGYVRSHSTQTLTCNSDGEWVYNTFCIYKRCRHPGELRNGQVEIKTDLSFGSQIEFSCSEGFFLIGSTTSRCEVQDRGVGWSHPLPQCEIVKCKPPPDIRNGRHSGEENFYAYGFSVTYSCDPRFSLLGHASISCTVENETIGVWRPSPPTCEKITCRKPDVSHGEMVSGFGPIYNYKDTIVFKCQKGFVLRGSSVIHCDADSKWNPSPPACEPNSCINLPDIPHASWETYPRPTKEDVYVVGTVLRYRCHPGYKPTTDEPTTVICQKNLRWTPYQGCEALCCPEPKLNNGEITQHRKSRPANHCVYFYGDEISFSCHETSRFSAICQGDGTWSPRTPSCGDICNFPPKIAHGHYKQSSSYSFFKEEIIYECDKGYILVGQAKLSCSYSHWSAPAPQCKALCRKPELVNGRLSVDKDQYVEPENVTIQCDSGYGVVGPQSITCSGNRTWYPEVPKCEWETPEGCEQVLTGKRLMQCLPNPEDVKMALEVYKLSLEIEQLELQRDSARQSTLDKEL
chain 2: SDAEHCPELPPVDNSIFVAKEVEGQILGTYVCIKGYHLVGKKTLFCNASKEWDNTTTECRLGHCPDPVLVNGEFSSSGPVNVSDKITFMCNDHYILKGSNRSQCLEDHTWAPPFPICKSRDCDPPGNPVHGYFEGNNFTLGSTISYYCEDRYYLVGVQEQQCVDGEWSSALPVCKLIQEAPKPECEKALLAFQESKNLCEAMENFMQQLKESGMTMEELKYSLELKKAELKAKLL
chain 3: ANSLLEETKQGNLERECIEELCNKEEAREVFENDPETDYFYPKYLVCLRSFQTGLFTAARQSTNAYPDLRSCVNAIPDQCSPLPCNEDGYMSCKDGKASFTCTCKPGWQGEKCEFDINECKDPSNINGGCSQICDNTPGSYHCSCKNGFVMLSNKKDCKDVDECSLKPSICGTAVCKNIPGDFECECPEGYRYNLKSKSCEDIDECSENMCAQLCVNYPGGYTCYCDGKKGFKLAQDQKSCEVVSVCLPLNLDTKYELLYLAEQFAGVVLYLKFRLPEISRFSAEFDFRTYDSEGVILYAESIDHSAWLLIALRGGKIEVQLKNEHTSKITTGGDVINNGLWNMVSVEELEHSISIKIAKEAVMDINKPGPLFKPENGLLETKVYFAGFPRKVESELIKPINPRLDGCIRSWNLMKQGASGIKEIIQEKQNKHCLVTVEKGSYYPGSGIAQFHIDYNNVSSAEGWHVNVTLNIRPSTGTGVMLALVSGNNTVPFAVSLVDSTSEKSQDILLSVENTVIYRIQALSLCSDQQSHLEFRVNRNNLELSTPLKIETISHEDLQRQLAVLDKAMKAKVATYLGGLPDVPFSATPVNAFYNGCMEVNINGVQLDLDEAISKHNDIRAHSCPSVWKKTKNS
modifications: 125I label (Iodogen method) in the 125I-C4bp assays; labelled chain and residues not stated
notes: eight CCP domains; the predominant form has seven identical alpha chains; three CCP domains; one beta chain in the predominant form; protein S, human; co-purified with C4bp from plasma ('C4bp with protein S'); also called 125I-C4bp; serum C4bp; source: purified from pooled human plasma (with protein S); copies: 7 + 1 +
- fold decrease of C4bp binding at 100 mM NaCl against 50 mM NaCl [1]: 2 fold
- fold C4bp binding capacity against strain YeO3-c-OCR [2]: ~4 fold

— PMC2516929, “Yersinia enterocolitica Serum Resistance Proteins YadA and Ail Bind the Complement Regulator C4b-Binding Protein” (PLoS Pathogens, 2008)
